B1: MAdCAM antibody Table 1 clone 66 (scFv)
scFv: EVQLLESGGGLVQPGGSLRLSCAASGFTFSSYWMHWVRQAPGKGLEWVAAISYDGKYKDYEDSVKGRFTISRDNSKNTLYLQMNSLRAEDTAVYYCARENKQWLASFDYWGQGTLVTVSSGGGGSGGGGSGGGGSGGGGSDIQMTQSPSSLSASVGDRVTITCQASQDISNFVNWYQQKPGKAPKLLIYAANLRSGVPSRFSGSGSGTDFTLTISSLQPEDFATYYCQQANSFPVTFGPGTKVDIK
B2: MAdCAM antibody Table 1 clone 65 (scFv)
scFv: QVQLVQSGAEVKKPGASVKVSCKASGYTFTRHWIHWVRQAPGQGLEWMGWINVKTGGAGYAQKFQGRVTMTRDTSTSTVYMELSSLRSEDTAVYYCARESSGWYGTDVWGQGTTVTVSSGGGGSGGGGSGGGGSGGGGSDIQMTQSPSSLSASVGDRATITCRASQSISNYLAWYQQKPGKAPKLLIYAASSLQSGVPSRFSGSGSGTDFTLTISSLQPEDFATYYCQQSNSFPLTFGGGTKVEIK
B3: MAdCAM antibody Table 1 clone 1 (scFv)
scFv: EVQLLESGGGLVQPGGSLRLSCAASGFTFSSYGMHWVRQAPGKGLEWVAVISDDGSDKYYADSVKGRFTISRDNSKNTLYLQMNSLRAEDTAVYYCTTSKYYYYYGMDVWGQGTTVTVSSGGGGSGGGGSGGGGSGGGGSDIQMTQSPSSLSASVGDRVTITCQASQDISKSLNWYQQKPGKAPKLLIYAASSLQSGVPSRFSGSGSGTDFTLTISSLQPEDFATYYCQQGYSTPLTFGGGTKVEIK
B4: MAdCAM antibody Table 1 clone 20 (scFv)
scFv: EVQLLESGGGLVQPGGSLRLSCAASGFTFDDYAMHWVRQAPGKGLEWVSYIDTSSSHLYYADSVKGRFTISRDNSKNTLYLQMNSLRAEDTAVYYCARDEAAAGYYGMDVWGQGTTVTVSSGGGGSGGGGSGGGGSGGGGSDIQMTQSPSSLSASVGDRVTITCQAGQDISNYLNWYQQKPGKAPKLLIYDASNLETGVPSRFSGSGSGTDFTLTISSLQPEDFATYYCQQTYSTPITFGQGTKLEIK
B5: MAdCAM antibody Table 1 clone 64 (scFv)
scFv: EVQLLESGGGLVKPGGSLRLSCAASGFAFSSHWMHWVRQAPGKGLEWVAGTSGSGESRDYADFVKGRFTISRDDSKNTLYLQMNSLKTEDTAVYYCARETYYYYYMDVWGKGTTVTVSSGGGGSGGGGSGGGGSGGGGSDIQMTQSPSSLSASVGDRVTITCRASQGISNYLAWYQQKPGKAPKLLIYDAANLEGGVPSRFSGSGSGTDFTLTISSLQPEDFATYYCQQSDIFPPTFGQGTKVEIK
B6: MAdCAM antibody Table 1 clone 19 (scFv)
scFv: EVQLLESGGGLVQPGGSLRLSCAASGFTFDDYAMHWVRQAPGKGLEWVSGISWNSGSIGYADSVKGRFTISRDNSKNTLYLQMNSLRAEDTAVYYCAKDIVAAGHYYYGMDVWGQGTTVTVSSGGGGSGGGGSGGGGSGGGGSDIQMTQSPSSLSASVGDRVTITCQASQDISNYLNWYQQKPGKAPKLLIYDASNLETGVPSRFSGSGSGTDFTLTISSLQPEDFATYYCQQSYSTPLTFGGGTKVEIK
B7: MAdCAM antibody Table 1 clone 23 (scFv)
scFv: EVQLLESGGGLVQPGGSLRLSCAASGFTFSSYAMHWVRQAPGKGLEWVSGISGSGGSAYYADSVKGRFTISRDNSKNTLYLQMNSLRAEDTAVYYCATSQAPVDYYYYGMDVWGQGTTVTVSSGGGGSGGGGSGGGGSGGGGSDIQMTQSPSSLSASVGDRVTITCRASQSISSWLAWYQQKPGKAPKLLIYAASNLQRGVPSRFSGSGSGTDFTLTISSLQPEDFATYYCQQSYSIPITFGQGTKVEIK

Target: T1, human MAdCAM protein (human, UniProt Q13477 19-317, limits assumed)
T1 construct: also called soluble monomeric human MAdCAM; recombinant human MAdCAM
T1 sequence (looked up): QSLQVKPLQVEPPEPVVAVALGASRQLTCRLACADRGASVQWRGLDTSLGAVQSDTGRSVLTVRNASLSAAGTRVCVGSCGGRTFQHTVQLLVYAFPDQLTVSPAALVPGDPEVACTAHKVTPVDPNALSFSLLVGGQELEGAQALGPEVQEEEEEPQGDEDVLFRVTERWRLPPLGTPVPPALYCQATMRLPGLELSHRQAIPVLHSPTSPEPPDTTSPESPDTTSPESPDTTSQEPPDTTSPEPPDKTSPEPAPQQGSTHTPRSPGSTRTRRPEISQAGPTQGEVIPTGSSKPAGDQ
Assay: Octet

| Binder | binding result |
| --- | --- |
| B1 | binds |
| B2 | binds |
| B3 | binds |
| B4 | binds |
| B5 | binds |
| B6 | binds |
| B7 | binds |

Target: T2, recombinant mouse MAdCAM-1 (mouse, UniProt Q61826 22-364, limits assumed)
T2 construct: also called mMAdCAM-1
T2 sequence (looked up): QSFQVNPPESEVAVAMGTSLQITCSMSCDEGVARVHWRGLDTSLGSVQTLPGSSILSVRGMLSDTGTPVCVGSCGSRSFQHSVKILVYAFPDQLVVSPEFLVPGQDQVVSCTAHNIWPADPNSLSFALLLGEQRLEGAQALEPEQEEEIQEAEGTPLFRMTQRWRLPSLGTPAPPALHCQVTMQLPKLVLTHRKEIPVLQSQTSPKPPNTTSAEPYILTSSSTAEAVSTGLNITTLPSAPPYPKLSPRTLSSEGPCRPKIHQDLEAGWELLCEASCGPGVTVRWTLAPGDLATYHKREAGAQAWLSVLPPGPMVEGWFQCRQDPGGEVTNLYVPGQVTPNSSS
Assay: Octet

| Binder | binding result |
| --- | --- |
| B4 | no binding |
| B6 | no binding |
| B7 | no binding |

Target: T3, mouse MAdCAM expressed on cells (mouse, UniProt Q61826 22-405)
T3 construct: whole, on cells
T3 sequence (looked up): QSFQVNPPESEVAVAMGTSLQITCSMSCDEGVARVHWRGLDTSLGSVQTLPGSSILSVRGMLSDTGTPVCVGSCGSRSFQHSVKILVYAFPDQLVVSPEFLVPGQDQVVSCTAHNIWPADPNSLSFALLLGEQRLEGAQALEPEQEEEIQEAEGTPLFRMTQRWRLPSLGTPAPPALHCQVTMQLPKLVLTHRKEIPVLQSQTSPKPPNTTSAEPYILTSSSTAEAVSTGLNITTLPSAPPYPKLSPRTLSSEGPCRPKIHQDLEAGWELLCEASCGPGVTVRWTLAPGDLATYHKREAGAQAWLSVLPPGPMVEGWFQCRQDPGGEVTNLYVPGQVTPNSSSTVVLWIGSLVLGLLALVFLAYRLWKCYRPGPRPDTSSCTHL
Assay: cell binding

| Binder | binding result |
| --- | --- |
| B1 | binds |
| B2 | binds |
| B3 | binds |
| B4 | no binding |
| B5 | binds |
| B6 | no binding |
| B7 | no binding |

Target: T4, human MAdCAM expressed on cells (human, UniProt Q13477 19-382)
T4 construct: whole, on cells
T4 sequence (looked up): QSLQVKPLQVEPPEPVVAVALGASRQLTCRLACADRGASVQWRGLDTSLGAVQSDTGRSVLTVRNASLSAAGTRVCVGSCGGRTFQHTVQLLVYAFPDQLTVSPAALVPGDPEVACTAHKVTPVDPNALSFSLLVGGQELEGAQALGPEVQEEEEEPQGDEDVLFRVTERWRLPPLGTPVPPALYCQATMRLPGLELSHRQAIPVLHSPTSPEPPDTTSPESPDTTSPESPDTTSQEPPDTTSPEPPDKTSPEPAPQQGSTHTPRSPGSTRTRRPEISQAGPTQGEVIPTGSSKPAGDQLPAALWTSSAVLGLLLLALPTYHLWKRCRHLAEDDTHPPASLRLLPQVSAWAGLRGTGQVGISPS
Assay: cell binding

| Binder | binding result |
| --- | --- |
| B1 | binds |
| B2 | binds |
| B3 | binds |
| B4 | binds |
| B5 | binds |
| B6 | binds |
| B7 | binds |

Reference: US20230235004A1 (published 2023)
